Residue numbers refer to the chain shown, from its start.
T1: CXCR4 mutation library clone 1057 (K230E, S178R) (human, UniProt P61073 1-352)
T1 chain: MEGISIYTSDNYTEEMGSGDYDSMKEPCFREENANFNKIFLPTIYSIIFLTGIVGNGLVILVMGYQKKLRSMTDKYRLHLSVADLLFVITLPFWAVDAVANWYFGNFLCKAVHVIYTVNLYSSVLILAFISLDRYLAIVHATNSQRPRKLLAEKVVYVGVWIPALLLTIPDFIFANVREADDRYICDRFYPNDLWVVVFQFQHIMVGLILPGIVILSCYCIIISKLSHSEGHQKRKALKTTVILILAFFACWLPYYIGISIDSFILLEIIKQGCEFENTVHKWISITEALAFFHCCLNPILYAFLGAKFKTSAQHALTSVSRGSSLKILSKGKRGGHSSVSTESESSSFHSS

T2: CXCR4 mutation library clone 465 (F189L, S319P, V155E) (human, UniProt P61073 1-352)
T2 chain: T1 chain with V155E, R178S, F189L, E230K, S319P

T3: CXCR4 mutation library clone 185 (E277A, I245V, N298S) (human, UniProt P61073 1-352)
T3 chain: T1 chain with R178S, E230K, I245V, E277A, N298S

B1: 238D2: monovalent anti CXCR4 Nanobody, SEQ ID NO: 2 (protein)
VHH: EVQLVESGGGLVQTGGSLRLSCAASGFTFSSYAMSWVRQAPGKGLEWVSGIKSSGDSTRYAGSVKGRFTISRDNAKNMLYLQMYSLKPEDTAVYYCAKSRVSRTGLYTYDNRGQGTQVTVSS
modifications: Nanobody
B2: Nanobody 238D4 (VHH)
VHH: EVQLMESGGGLVQAGGSLRLSCAASGRTFNNYAMGWFRRAPGKEREFVAAITRSGVRSGVSAIYGDSVKDRFTISRDNAKNTLYLQMNSLKPEDTAVYTCAASAIGSGALRRFEYDYSGQGTQVTVSS

Columns and labels:
[1] = target: T4, CXCR4 (Homo sapiens, UniProt P61073); experiment: Competition binding, displacement of [^125I]-238D2 on membranes from HEK293T cells transiently expressing CXCR4; settings: mean ± S.E.M.
T4 construct: expressed in transfected cells; host or cells: HEK293T, transient; membrane fraction
T4 sequence (P61073 whole entry): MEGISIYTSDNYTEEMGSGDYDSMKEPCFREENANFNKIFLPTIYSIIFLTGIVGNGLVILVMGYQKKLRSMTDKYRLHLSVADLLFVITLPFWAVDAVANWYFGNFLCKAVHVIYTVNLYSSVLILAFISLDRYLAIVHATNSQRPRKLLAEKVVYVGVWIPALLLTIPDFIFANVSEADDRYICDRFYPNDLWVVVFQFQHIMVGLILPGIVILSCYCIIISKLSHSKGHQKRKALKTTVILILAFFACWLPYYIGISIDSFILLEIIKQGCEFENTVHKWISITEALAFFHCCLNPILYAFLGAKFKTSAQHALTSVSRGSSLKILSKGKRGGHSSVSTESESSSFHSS
Procedure: Iodine incorporation and specific activity were controlled via precipitation of the protein with trichloroacetic acid.
Competition binding assay—Periplasmic fractions were screened in a competition binding assay using membranes from HEK293T cells transiently expressing CXCR4. […] Membranes were then harvested over polyethylenimine (0.5%)-treated Whatman GF/C filter plates and washed three times with ice cold binding buffer containing 500 mM NaCl. Plates were counted by liquid scintillation.
Characterization of Nanobody binding to CXCR4—Following purification, receptor binding to characteristics for 238D2 and 238D4 were investigated on cell membranes from HEK293T cells transiently expressing CXCR4.
Data analysis and presentation—Data are presented as mean±S.E.M. from n independent experiments. Concentration response curves (E/[A] curves) were fitted to the Hill equation using an iterative, least-squares method (GraphPad Prism 4.0, GraphPad Software, San Diego, Calif.) to provide maximal inhibitory effects (Imax), half maximal effective (EC50) or inhibitory concentrations (IC50). Competition binding affinities and functional antagonist affinities (Ki) were calculated using the Cheng and Prusoff equation Ki=IC50/(1+[agonist]/EC50) (Cheng & Prusoff, 1973).

[2] = target: T5, CXCR4 mutant 3 (D187V) (Homo sapiens, UniProt P61073, D187V); experiment: Footprint assay, flow cytometry binding to CXCR4 D187V on Hek293T cells; settings: Myc-tag detection, 10 nM and 100 nM Nanobody, average n = 3, relative to hCXCR4
T5 construct: expressed in transfected cells; host or cells: Hek293T, transient, pcDNA3.1
T5 sequence (P61073 whole entry D187V): as the sequence (P61073 whole entry) above, with D187V counted along it
Description: Based on the data from example 1.8, we introduced 3 single point-mutations in ECL2 of CXCR4 that allowed to discriminate between 238D2 and 238D4-like epitopes: V196E (specifically disturbing D2 binding)-SEQ ID NO: 20, D187V (specifically disturbing D4 binding)-SEQ ID NO: 21, F189V (disturbing binding of both D2 and D4)-SEQ ID NO: 19. […] For the epitope mapping, transient transfections of the three CXCR4 mutants and wildtype human CXCR4 in the pcDNA3.1 vector were done in Hek293T cells, after which Nanobody binding of different families was assessed by flow cytometry using detection of the Myc-tag, followed by secondary anti-mouse PE. Two concentrations of Nanobody were tested, 10 nM and 100 nM, and experiment was repeated with essentially the same results. Binding of the Nanobodies to HEK293T hCXCR4 cells was used for normalization using the following formulas:
Percentage of binding to the mutant receptors was calculated for each Nanobody concentration, and a position was considered as critical when less than 25% residual binding (average of n=3) was observed (Table C-5). […] Nanobodies could be grouped according to their different binding patterns, not only in “238D2-like” or “epitope A binders” and “238D4-like” or “epitope B binders” but also into other new groups.

[3] = target: T6, wildtype human CXCR4 (pcDNA3.1-CXCR4, expressed in HEK293T) (human, UniProt P61073 1-352); experiment: competition with [125I]-238D4, HEK293T-CXCR4 membranes
T6 construct: whole, on cells; also called hCXCR4; HEK293T CXCR4
T6 sequence (P61073 whole entry): as the sequence (P61073 whole entry) above

[4] = target: all CXCR4 library clones containing a mutation at E179; experiment: immunofluorescence, average over all clones with a mutation at E179
[5] = target: all CXCR4 library clones containing a mutation at F189; experiment: immunofluorescence, average over all clones with a mutation at F189
[6] = target: T1, CXCR4 mutation library clone 1057 …; experiment: immunofluorescence on HEK-293T expressing the clone, normalised to wild type
[7] = target: T2, CXCR4 mutation library clone 465 …; experiment: as above
[8] = target: CXCR4 mutation library clone 914 (N192K) (human, UniProt P61073 1-352); experiment: as above
[9] = target: CXCR4 mutation library clone 2270 (V196E) (human, UniProt P61073 1-352); experiment: as above
[10] = target: T3, CXCR4 mutation library clone 185 …; experiment: as above

Row | Molecule | [^125I]-238D2 Displacem. (%) ([1]; maximal displacement) | [^125I]-238D2 pKi ([1]; receptor affinity) | HEK293T D187V binding [2] | pKi [3] [pKi] | average nanobody reactivity [4] [%] | average nanobody reactivity [5] [%] | % immunofluorescence [6] [%] | % immunofluorescence [7] [%] | % immunofluorescence [8] [%] | % immunofluorescence [9] [%] | % immunofluorescence [10] [%]
1 | B1 | 97 ± 6 | 8.41 ± 0.11 | + (>75% binding to mutant rel. to hCXCR4) | – | – | – | – | – | – | – | –
2 | B2 | – | – | – | 8.55 | 13.8 | 0.2 | 11.4 | 12.2 | 55.8 | 94 | 69.3
